Experimental data from patent US20220265806A1.
pEC50: −log10 of the molar value.

Target: E1′ (CHIKV E1 ectodomain construct) (Chikungunya virus)

**Q.** How did the pEC50 turn out when chCHK-166^pMAZ (antibody) was run?
**A.** 8.66
